Each block holds one binder with its values, some of them ahead of it.
Experiments:
[1] = molecular target: T1, FcRn, biotinylated, coupled to streptavidin-sepharose (Homo sapiens (Human), UniProt P55899 24-297; P61769 21-119, The receptor is biotinylated and coupled to streptavidin-sepharose. The patent states neither the biotinylation site nor any tag.); assay: FcRn affinity chromatography
T1 construct: also called FcRn-sepharose matrix; copies: 1 + 1

N(A2B2)A-avi-His = molecular target: T2, N(A2B2)A-avi-His (human, biotinylated avi-tag); assay: SPR ProteOn, purified Fab
T2 construct: also called biotinylated N(A2B2)A-avi-His
T2 chain: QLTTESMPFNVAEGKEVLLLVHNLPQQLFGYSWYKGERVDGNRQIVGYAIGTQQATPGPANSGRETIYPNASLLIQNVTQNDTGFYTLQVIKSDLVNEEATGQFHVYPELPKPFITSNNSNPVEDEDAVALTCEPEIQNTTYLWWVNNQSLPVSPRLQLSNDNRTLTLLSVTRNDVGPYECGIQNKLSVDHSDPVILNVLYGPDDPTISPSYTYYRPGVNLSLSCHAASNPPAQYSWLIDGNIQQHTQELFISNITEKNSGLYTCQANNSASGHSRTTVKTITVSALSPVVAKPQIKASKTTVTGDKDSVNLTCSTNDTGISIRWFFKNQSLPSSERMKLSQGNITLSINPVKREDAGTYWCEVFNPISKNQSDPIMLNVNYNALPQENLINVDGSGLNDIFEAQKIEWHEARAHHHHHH

[2] = molecular target: T3, recombinant CD79b-His (Sinobiological #29750-H08H) (Homo sapiens (Human), UniProt P40259 29-159); assay: SPR Biacore T200, CD79b-His captured by anti-penta-His
T3 construct: bought protein; also called soluble recombinant CD79b-His
T3 sequence: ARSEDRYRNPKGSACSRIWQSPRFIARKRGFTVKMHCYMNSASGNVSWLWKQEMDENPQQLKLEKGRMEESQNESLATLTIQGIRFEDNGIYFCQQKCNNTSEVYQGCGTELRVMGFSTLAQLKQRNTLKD

[3] = molecular target: T4, human CD28 expressed on cells (CHO-k1 stably overexpressing human CD28; T cells in functional assays) (human, UniProt P10747 19-220); assay: cell-based or functional assay
[4] = molecular target: T5, human CD19 on Nalm6 B cells (human, UniProt P15391 20-556); assay: flow cytometry on Nalm6 cells
T5 sequence: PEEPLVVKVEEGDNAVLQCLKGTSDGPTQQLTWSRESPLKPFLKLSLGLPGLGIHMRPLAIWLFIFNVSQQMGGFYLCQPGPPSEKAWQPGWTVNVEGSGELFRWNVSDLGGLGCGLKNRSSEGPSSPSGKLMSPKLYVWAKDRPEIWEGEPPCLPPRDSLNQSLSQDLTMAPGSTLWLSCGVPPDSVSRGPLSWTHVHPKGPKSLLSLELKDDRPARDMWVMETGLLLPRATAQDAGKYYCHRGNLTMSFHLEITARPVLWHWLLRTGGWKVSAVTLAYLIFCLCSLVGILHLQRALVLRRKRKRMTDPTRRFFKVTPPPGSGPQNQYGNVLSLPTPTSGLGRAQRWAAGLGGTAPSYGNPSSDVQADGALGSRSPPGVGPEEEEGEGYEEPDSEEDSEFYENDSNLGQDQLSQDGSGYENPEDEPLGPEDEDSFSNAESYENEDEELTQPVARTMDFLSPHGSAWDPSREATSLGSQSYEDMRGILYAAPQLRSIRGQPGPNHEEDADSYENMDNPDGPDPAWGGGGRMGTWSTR

[5] = molecular target: T4, human CD28 expressed on cells (CHO-k1 …); assay: flow cytometry on CHOk1-CD28 cells

B1: Molecule 11D: CEA (A5H1EL1D)-CD28 (SA_Variant 29) 1+1 format (bispecific antibody, human IgG1, kappa, L234A L235A)
heavy 1: EIVLTQSPATLSLSPGERATLSCRASSSVTYIHWYQQKPGQAPRSWIYATSNLASGIPARFSGSGSGTDFTLTISSLEPEDFAVYYCQHWSSKPPTFGQGTKLEIKSSASTKGPSVFPLAPSSKSTSGGTAALGCLVKDYFPEPVTVSWNSGALTSGVHTFPAVLQSSGLYSLSSVVTVPSSSLGTQTYICNVNHKPSNTKVDKKVEPKSCDKTHTCPPCPAPEAAGGPSVFLFPPKPKDTLMISRTPEVTCVVVDVSHEDPEVKFNWYVDGVEVHNAKTKPREEQYNSTYRVVSVLTVLHQDWLNGKEYKCKVSNKALGAPIEKTISKAKGQPREPQVCTLPPSRDELTKNQVSLSCAVKGFYPSDIAVEWESNGQPENNYKTTPPVLDSDGSFFLVSKLTVDKSRWQQGNVFSCSVMHEALHNHYTQKSLSLSP
light 1: EVQLLESGGGLVQPGGSLRLSCAASGFTFTDYYMNWVRQAPGKGLEWLGFIGNKANAYTTEYSASVKGRFTISRDKSKNTLYLQMNSLRAEDTATYYCTRDRGLRFYFDYWGQGTTVTVSSASVAAPSVFIFPPSDEQLKSGTASVVCLLNNFYPREAKVQWKVDNALQSGNSQESVTEQDSKDSTYSLSSTLTLSKADYEKHKVYACEVTHQGLSSPVTKSFNRGEC
heavy 2: not shown
light 2: not shown
notes: also called P1AE4776; copies: 1 + 1 + 1 + 1
FcRn affinity (relative retention time) [1]: 0.17

B5: P001.177 Fab fragment (Fab, V domains shown)
VH: EVQLLESGGGLVQPGGSLRLSCAASGFYFTDYYMNWVRQAPGKGLEWLGFISNKANAYTTEYSASVKGRFTISRDKSKNTLYLQMNSLRAEDTATYYCTRDRGLRFYFDYWGQGTTVTVSS
VL: EIVLTQSPATLSLSPGERATLSCRASSSVTYIHWYQQKPGQAPRSWIYATSNLASGIPARFSGSGSGTDFTLTISSLEPEDFAVYYCQHWSSKPPTFGQGTKLEIK
koff (N(A2B2)A-avi-His): 0.000785 s⁻¹

B7: FAP (4B9) - CD28 (CD28(SA)_Variant 11) 1+1 (bispecific antibody, human IgG1, kappa, L234A L235A)
heavy 1: EIVLTQSPGTLSLSPGERATLSCRASQSVTSSYLAWYQQKPGQAPRLLINVGSRRATGIPDRFSGSGSGTDFTLTISRLEPEDFAVYYCQQGIMLPPTFGQGTKVEIKSSASTKGPSVFPLAPSSKSTSGGTAALGCLVKDYFPEPVTVSWNSGALTSGVHTFPAVLQSSGLYSLSSVVTVPSSSLGTQTYICNVNHKPSNTKVDKKVEPKSCDKTHTCPPCPAPEAAGGPSVFLFPPKPKDTLMISRTPEVTCVVVDVSHEDPEVKFNWYVDGVEVHNAKTKPREEQYNSTYRVVSVLTVLHQDWLNGKEYKCKVSNKALGAPIEKTISKAKGQPREPQVCTLPPSRDELTKNQVSLSCAVKGFYPSDIAVEWESNGQPENNYKTTPPVLDSDGSFFLVSKLTVDKSRWQQGNVFSCSVMHEALHNHYTQKSLSLSP
light 1: EVQLLESGGGLVQPGGSLRLSCAASGFTFSSYAMSWVRQAPGKGLEWVSAIIGSGASTYYADSVKGRFTISRDNSKNTLYLQMNSLRAEDTAVYYCAKGWFGGFNYWGQGTLVTVSSASVAAPSVFIFPPSDEQLKSGTASVVCLLNNFYPREAKVQWKVDNALQSGNSQESVTEQDSKDSTYSLSSTLTLSKADYEKHKVYACEVTHQGLSSPVTKSFNRGEC
heavy 2: not shown
light 2: not shown
EC50 killing (nM), TCB-mediated killing of MV3 target cells [3]: 1.73 nM

B8: FAP (4B9) - CD28 (CD28(SA)_Variant 12) 1+1 (bispecific antibody, human IgG1, kappa, L234A L235A)
heavy 1: B7 heavy 1
light 1: B7 light 1
heavy 2: not shown
light 2: DIQMTQSPSSLSASVGDRVTITCRASQNIYVWLNWYQQKPGKAPKLLIYKASNLYSGVPSRFSGSRSGTDFTLTISSLQPEDFATYYCQQGQTYPYTFGQGTKLEIKRTVAAPSVFIFPPSDRKLKSGTASVVCLLNNFYPREAKVQWKVDNALQSGNSQESVTEQDSKDSTYSLSSTLTLSKADYEKHKVYACEVTHQGLSSPVTKSFNRGEC
EC50 killing (nM), TCB-mediated killing of MV3 target cells [3]: 0.98 nM

B9: FAP (4B9) - CD28 (CD28(SA)_Variant 15) 1+1 (bispecific antibody, human IgG1, kappa, L234A L235A)
heavy 1: B7 heavy 1
light 1: B7 light 1
heavy 2: not shown
light 2: not shown
EC50 killing (nM), TCB-mediated killing of MV3 target cells [3]: 1.79 nM

B10: FAP (4B9) - CD28 (CD28(SA)_Variant 29) 1+1 (bispecific antibody, human IgG1, kappa, L234A L235A)
heavy 1: B7 heavy 1
light 1: B7 light 1
heavy 2: not shown
light 2: not shown
EC50 killing (nM), TCB-mediated killing of MV3 target cells [3]: 1.11 nM

B11: Molecule 18C: CD19 (8B8-2B11)-CD28 (SA v8) 1+1 (bispecific antibody, human IgG1, kappa, L234A L235A)
heavy 1: not shown
heavy 2: DIVMTQTPLSLSVTPGQPASISCKSSQSLETSTGTTYLNWYLQKPGQSPQLLIYRVSKRFSGVPDRFSGSGSGTDFTLKISRVEAEDVGVYYCLQLLEDPYTFGQGTKLEIKSSASTKGPSVFPLAPSSKSTSGGTAALGCLVKDYFPEPVTVSWNSGALTSGVHTFPAVLQSSGLYSLSSVVTVPSSSLGTQTYICNVNHKPSNTKVDKKVEPKSCDKTHTCPPCPAPEAAGGPSVFLFPPKPKDTLMISRTPEVTCVVVDVSHEDPEVKFNWYVDGVEVHNAKTKPREEQYNSTYRVVSVLTVLHQDWLNGKEYKCKVSNKALGAPIEKTISKAKGQPREPQVCTLPPSRDELTKNQVSLSCAVKGFYPSDIAVEWESNGQPENNYKTTPPVLDSDGSFFLVSKLTVDKSRWQQGNVFSCSVMHEALHNHYTQKSLSLSP
light 1: not shown
light 2: QVQLVQSGAEVKKPGASVKVSCKASGYTFTDYIMHWVRQAPGQGLEWMGYINPYNDGSKYTEKFQGRVTMTSDTSISTAYMELSRLRSDDTAVYYCARGTYYYGPQLFDYWGQGTTVTVSSASVAAPSVFIFPPSDEQLKSGTASVVCLLNNFYPREAKVQWKVDNALQSGNSQESVTEQDSKDSTYSLSSTLTLSKADYEKHKVYACEVTHQGLSSPVTKSFNRGEC
notes: also called P1AF0175; CD19-CD28 v8
EC50 [4]: 0.232 nM
EC50 [5]: 232 nM

Next, values leading:

FcRn affinity (relative retention time) [1]: 0.1
B2: Molecule 11C: CEA (A5H1EL1D)-CD28 (SA_Variant 15) 1+1 format (bispecific antibody, human IgG1, kappa, L234A L235A)
heavy 1: B1 heavy 1
light 1: B1 light 1
heavy 2: not shown
light 2: not shown
notes: also called P1AE4775; copies: 1 + 1 + 1 + 1

FcRn affinity (relative retention time) [1]: 0.21
B3: Molecule 11A: CEA (A5H1EL1D)-CD28 (SA) 1+1 format (bispecific antibody, human IgG1, kappa, L234A L235A)
heavy 1: B1 heavy 1
light 1: B1 light 1
heavy 2: not shown
light 2: not shown
notes: also called P1AE4773; copies: 1 + 1 + 1 + 1

FcRn affinity (relative retention time) [1]: 0.08
B4: Molecule 11B: CEA (A5H1EL1D)-CD28 (SA_Variant 8) 1+1 format (bispecific antibody, human IgG1, kappa, L234A L235A)
heavy 1: B1 heavy 1
light 1: B1 light 1
heavy 2: not shown
light 2: not shown
notes: also called P1AE4774; copies: 1 + 1 + 1 + 1

Kd [2]: 76 nM
koff [2]: 0.0195 s⁻¹
kon [2]: 257000 M⁻¹ s⁻¹
B6: Molecule 18F: CD79b (huMA79b.v28)-CD28 (SA v15) 1+1 (bispecific antibody, human IgG1, kappa, L234A L235A)
heavy 1: not shown
heavy 2: DIQLTQSPSSLSASVGDRVTITCKASQSVDYEGDSFLNWYQQKPGKAPKLLIYAASNLESGVPSRFSGSGSGTDFTLTISSLQPEDFATYYCQQSNEDPLTFGQGTKVEIKSSASTKGPSVFPLAPSSKSTSGGTAALGCLVKDYFPEPVTVSWNSGALTSGVHTFPAVLQSSGLYSLSSVVTVPSSSLGTQTYICNVNHKPSNTKVDKKVEPKSCDKTHTCPPCPAPEAAGGPSVFLFPPKPKDTLMISRTPEVTCVVVDVSHEDPEVKFNWYVDGVEVHNAKTKPREEQYNSTYRVVSVLTVLHQDWLNGKEYKCKVSNKALGAPIEKTISKAKGQPREPQVCTLPPSRDELTKNQVSLSCAVKGFYPSDIAVEWESNGQPENNYKTTPPVLDSDGSFFLVSKLTVDKSRWQQGNVFSCSVMHEALHNHYTQKSLSLSP
light 1: not shown
light 2: EVQLVESGGGLVQPGGSLRLSCAASGYTFSSYWIEWVRQAPGKGLEWIGEILPGGGDTNYNEIFKGRATFSADTSKNTAYLQMNSLRAEDTAVYYCTRRVPIRLDYWGQGTLVTVSSASVAAPSVFIFPPSDEQLKSGTASVVCLLNNFYPREAKVQWKVDNALQSGNSQESVTEQDSKDSTYSLSSTLTLSKADYEKHKVYACEVTHQGLSSPVTKSFNRGEC
notes: also called P1AE9039; CD79b-CD28

EC50 [4]: 0.363 nM
EC50 [5]: 150 nM
B12: Molecule 18D: CD19 (8B8-2B11)-CD28 (SA v11) 1+1 (bispecific antibody, human IgG1, kappa, L234A L235A)
heavy 1: not shown
heavy 2: B11 heavy 2
light 1: not shown
light 2: B11 light 2
notes: also called P1AF0377; CD19-CD28 v11

EC50 [4]: 0.274 nM
EC50 [5]: 6.65 nM
B13: Molecule 18A: CD19 (8B8-2B11)-CD28 (SA v29) 1+1 (bispecific antibody, human IgG1, kappa, L234A L235A)
heavy 1: not shown
heavy 2: B11 heavy 2
light 1: not shown
light 2: B11 light 2
notes: also called P1AE8002; CD19-CD28 v29

EC50 [4]: 0.368 nM
EC50 [5]: 10.8 nM
B14: Molecule 18E: CD19 (8B8-2B11)-CD28 (SA v27) 1+1 (bispecific antibody, human IgG1, kappa, L234A L235A)
heavy 1: not shown
heavy 2: B11 heavy 2
light 1: not shown
light 2: B11 light 2
notes: also called P1AF0378; CD19-CD28 v27

EC50 [4]: 0.416 nM
EC50 [5]: 15.6 nM
B15: Molecule 18B: CD19 (8B8-2B11)-CD28 (SA v15) 1+1 (bispecific antibody, human IgG1, kappa, L234A L235A)
heavy 1: not shown
heavy 2: B11 heavy 2
light 1: not shown
light 2: B11 light 2
notes: also called P1AE9040; CD19-CD28 v15
